Results taken from US5614400.

Key:
[1] = biological target: [1-^14 C]14:0-ACP (myristoyl-acyl carrier protein made with Escherichia coli ACP) (Escherichia coli) (UniProt P0A6A8)
[2] = biological target: [1-^14 C]16:0-ACP (palmitoyl-acyl carrier protein made with Escherichia coli ACP) (Escherichia coli) (UniProt P0A6A8)

Question: Which results are given for “100,000×g supernatant of a T. alata endosperm homogenate (soluble Δ^6 16:0-ACP desaturase activity) (pool or library)”?
Answer: Δ^6 monounsaturated product, specific activity (pmol/min/mg protein) [1]: 13; Δ^6 monounsaturated product, specific activity (pmol/min/mg protein) [2]: 99
